Here are results for 38 molecules from patent US20030118612A1 (MAXYGEN, published 2003).

First the molecules themselves.
T1: human G-CSF receptor (human, UniProt Q99062 25-836)
T1 sequence (looked up): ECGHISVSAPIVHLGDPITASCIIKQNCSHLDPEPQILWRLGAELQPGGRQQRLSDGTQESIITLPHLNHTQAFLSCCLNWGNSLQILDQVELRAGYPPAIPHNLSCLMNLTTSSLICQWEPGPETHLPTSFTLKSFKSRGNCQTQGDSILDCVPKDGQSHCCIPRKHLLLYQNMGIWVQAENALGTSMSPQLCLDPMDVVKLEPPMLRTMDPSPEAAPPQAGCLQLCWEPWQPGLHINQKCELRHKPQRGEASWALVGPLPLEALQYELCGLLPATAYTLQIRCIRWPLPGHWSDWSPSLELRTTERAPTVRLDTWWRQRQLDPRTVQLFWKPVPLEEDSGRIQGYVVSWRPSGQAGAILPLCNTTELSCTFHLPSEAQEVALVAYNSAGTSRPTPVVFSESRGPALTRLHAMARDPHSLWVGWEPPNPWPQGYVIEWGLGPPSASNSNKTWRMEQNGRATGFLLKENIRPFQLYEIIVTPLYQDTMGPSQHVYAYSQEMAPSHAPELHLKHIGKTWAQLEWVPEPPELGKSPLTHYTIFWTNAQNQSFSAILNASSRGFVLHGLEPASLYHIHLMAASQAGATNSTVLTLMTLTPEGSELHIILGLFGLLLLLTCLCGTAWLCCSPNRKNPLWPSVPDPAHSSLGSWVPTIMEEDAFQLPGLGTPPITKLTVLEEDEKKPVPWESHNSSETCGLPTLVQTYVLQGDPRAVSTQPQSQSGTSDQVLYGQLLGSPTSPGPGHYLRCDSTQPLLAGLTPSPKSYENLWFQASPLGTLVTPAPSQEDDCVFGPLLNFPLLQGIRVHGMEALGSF

B1: G-CSF variant K34/40R conjugated to SPA-PEG 5000 (ligand)
chain: TPLGPASSLPQSFLLKCLEQVRKIQGDGAALQERLCATYRLCHPEELVLLGHSLGIPWAPLSSCPSQALQLAGCLSQLHSGLFLYQGLLQALEGISPELGPTLDTLQLDVADFATTIWQQMEELGMAPALQPTQGAMPAFASAFQRRAGGVLVASHLQSFLEVSYRVLRHLAQP
modifications: SPA-PEG 5000 conjugated to the available PEGylation sites
B2: G-CSF variant K16/34/40R Q90K, non-conjugated (ligand)
chain: B1 chain with K16R, Q90K
B3: G-CSF variant K16/34/40R Q70K conjugated to SPA-PEG 5000 (ligand)
chain: B1 chain with K16R, Q70K
modifications: SPA-PEG 5000 conjugated to the available PEGylation sites
B4: G-CSF variant K16/34/40R conjugated to SPA-PEG 5000 (ligand)
chain: B1 chain with K16R
modifications: SPA-PEG 5000 conjugated to the available PEGylation sites
B5: G-CSF variant K16/34/40R E46K conjugated to SPA-PEG 5000 (ligand)
chain: B1 chain with K16R, E46K
modifications: SPA-PEG 5000 conjugated to the available PEGylation sites
B6: G-CSF variant K16/23/40R conjugated to SPA-PEG 5000 (ligand)
chain: B1 chain with K16R, K23R, R34K
modifications: SPA-PEG 5000 conjugated to the available PEGylation sites
B7: G-CSF variant K16/34/40R Q70K, non-conjugated (ligand)
chain: B1 chain with K16R, Q70K
B8: G-CSF variant K16/34/40R S80K conjugated to SPA-PEG 5000 (ligand)
chain: B1 chain with K16R, S80K
modifications: SPA-PEG 5000 conjugated to the available PEGylation sites
B9: G-CSF variant K16/34R conjugated to SPA-PEG 5000 (ligand)
chain: B1 chain with K16R, R40K
modifications: SPA-PEG 5000 conjugated to the available PEGylation sites
B10: G-CSF variant K16/34/40R S66K conjugated to SPA-PEG 5000 (ligand)
chain: B1 chain with K16R, S66K
modifications: SPA-PEG 5000 conjugated to the available PEGylation sites
B11: G-CSF variant K16/23/34/40R, non-conjugated (ligand)
chain: B1 chain with K16R, K23R
B12: G-CSF variant K16/40R, non-conjugated (ligand)
chain: B1 chain with K16R, R34K
B13: G-CSF variant 16R conjugated to SPA-PEG 5000 (ligand)
chain: B1 chain with K16R, R34K, R40K
modifications: SPA-PEG 5000 conjugated to the available PEGylation sites
B14: G-CSF variant K16/34/40R L3K, non-conjugated (ligand)
chain: B1 chain with L3K, K16R
B15: G-CSF variant K16/34/40R S76, non-conjugated (ligand)
chain: B1 chain with K16R, S76K
B16: G-CSF variant K16/23/34R conjugated to SPA-PEG 5000 (ligand)
chain: B1 chain with K16R, K23R, R40K
modifications: SPA-PEG 5000 conjugated to the available PEGylation sites
B17: G-CSF variant K16/34/40R S53K, non-conjugated (ligand)
chain: B1 chain with K16R, S53K
B18: G-CSF variant K16/34/40R S80K, non-conjugated (ligand)
chain: B1 chain with K16R, S80K
B19: G-CSF without N-terminal Histidine tag conjugated to SPA-PEG 5000 (ligand)
chain: B1 chain with R34K, R40K
modifications: SPA-PEG 5000 conjugated to the available PEGylation sites
B20: G-CSF without N-terminal Histidine tag, non-conjugated (ligand)
chain: B1 chain with R34K, R40K
B21: G-CSF variant K16/23/40R, non-conjugated (ligand)
chain: B1 chain with K16R, K23R, R34K
B22: G-CSF variant 16R, non-conjugated (ligand)
chain: B1 chain with K16R, R34K, R40K
B23: G-CSF variant K16/40R conjugated to SPA-PEG 5000 (ligand)
chain: B1 chain with K16R, R34K
modifications: SPA-PEG 5000 conjugated to the available PEGylation sites
B24: G-CSF variant K16/34/40R, non-conjugated (ligand)
chain: B1 chain with K16R
B25: G-CSF variant K16/34/40R Q67K, non-conjugated (ligand)
chain: B1 chain with K16R, Q67K
B26: G-CSF variant K16/23/34/40R conjugated to SPA-PEG 5000 (ligand)
chain: B1 chain with K16R, K23R
modifications: SPA-PEG 5000 conjugated to the available PEGylation sites
B27: G-CSF variant K16/34/40R S53K conjugated to SPA-PEG 5000 (ligand)
chain: B1 chain with K16R, S53K
modifications: SPA-PEG 5000 conjugated to the available PEGylation sites
B28: G-CSF variant K16/34/40R E46K, non-conjugated (ligand)
chain: B1 chain with K16R, E46K
B29: G-CSF variant K16/34/40R S76 conjugated to SPA-PEG 5000 (ligand)
chain: B1 chain with K16R, S76K
modifications: SPA-PEG 5000 conjugated to the available PEGylation sites
B30: G-CSF variant K16/23/34R, non-conjugated (ligand)
chain: B1 chain with K16R, K23R, R40K
B31: G-CSF variant K16/34R, non-conjugated (ligand)
chain: B1 chain with K16R, R40K
B32: G-CSF variant K16/34/40R S62K, non-conjugated (ligand)
chain: B1 chain with K16R, S62K
B33: G-CSF variant K16/34/40R L3K conjugated to SPA-PEG 5000 (ligand)
chain: B1 chain with L3K, K16R
modifications: SPA-PEG 5000 conjugated to the available PEGylation sites
B34: G-CSF variant K16/34/40R Q77, non-conjugated (ligand)
chain: B1 chain with K16R, Q77K
B35: G-CSF variant K16/34/40R S66K, non-conjugated (ligand)
chain: B1 chain with K16R, S66K
B36: G-CSF variant K16/34/40R Q77 conjugated to SPA-PEG 5000 (ligand)
chain: B1 chain with K16R, Q77K
modifications: SPA-PEG 5000 conjugated to the available PEGylation sites
B37: G-CSF variant K16/34/40R Q67K conjugated to SPA-PEG 5000 (ligand)
chain: B1 chain with K16R, Q67K
modifications: SPA-PEG 5000 conjugated to the available PEGylation sites
B38: G-CSF variant K16/34/40R S62K conjugated to SPA-PEG 5000 (ligand)
chain: B1 chain with K16R, S62K
modifications: SPA-PEG 5000 conjugated to the available PEGylation sites

Changes are numbered by the printed parent chain. Numbers in names are those of the source.

This test has as its target T1, human G-CSF receptor. The experiment in a line: cell-based or functional assay.
With B1, the “EC50 (% of hG-CSF) conjugated to SPA-PEG 5000” value (from here on “EC50 (% of hG-CSF) conjugated”) was 5 % of hG-CSF.

With B2, the “EC50 (% of hG-CSF) non-conjugated” value is 30 % of hG-CSF.

In the case of B3, the “EC50 (% of hG-CSF) conjugated” value was 20 % of hG-CSF.

Take B4: the “EC50 (% of hG-CSF) conjugated” value is 30 % of hG-CSF.

As for B5, the “EC50 (% of hG-CSF) conjugated” value was 1 % of hG-CSF.

As to B6, the “EC50 (% of hG-CSF) conjugated” value is 5 % of hG-CSF.

Take B7: the “EC50 (% of hG-CSF) non-conjugated” value was 30 % of hG-CSF.

B8: the “EC50 (% of hG-CSF) conjugated” value is 0.2 % of hG-CSF.

On to B9, for which the “EC50 (% of hG-CSF) conjugated” value is 10 % of hG-CSF.

As to B10, the “EC50 (% of hG-CSF) conjugated” value was 2 % of hG-CSF.

In the case of B11, the “EC50 (% of hG-CSF) non-conjugated” value is 20 % of hG-CSF.

In the case of B12, the “EC50 (% of hG-CSF) non-conjugated” value is 50 % of hG-CSF.

As to B13, the “EC50 (% of hG-CSF) conjugated” value is 1 % of hG-CSF.

As for B14, the “EC50 (% of hG-CSF) non-conjugated” value was 50 % of hG-CSF.

As to B15, the “EC50 (% of hG-CSF) non-conjugated” value was 50 % of hG-CSF.

Regarding B16, the “EC50 (% of hG-CSF) conjugated” value is 10 % of hG-CSF.

For B17, the “EC50 (% of hG-CSF) non-conjugated” value is 5 % of hG-CSF.

On to B18, for which the “EC50 (% of hG-CSF) non-conjugated” value is 10 % of hG-CSF.

B19: the “EC50 (% of hG-CSF) conjugated” value is 0.1 % of hG-CSF.

Regarding B20, the “EC50 (% of hG-CSF) non-conjugated” value is 100 % of hG-CSF.

Regarding B21, the “EC50 (% of hG-CSF) non-conjugated” value was 50 % of hG-CSF.

In the case of B22, the “EC50 (% of hG-CSF) non-conjugated” value is 100 % of hG-CSF.

For the molecule B23, the “EC50 (% of hG-CSF) conjugated” value was 5 % of hG-CSF.

Take B24: the “EC50 (% of hG-CSF) non-conjugated” value was 35 % of hG-CSF.

Consider B25, for which the “EC50 (% of hG-CSF) non-conjugated” value was 10 % of hG-CSF.

Take B26: the “EC50 (% of hG-CSF) conjugated” value is 15 % of hG-CSF.

With B27, the “EC50 (% of hG-CSF) conjugated” value is 0.5 % of hG-CSF.

For B28, the “EC50 (% of hG-CSF) non-conjugated” value is 10 % of hG-CSF.

As to B29, the “EC50 (% of hG-CSF) conjugated” value is 20 % of hG-CSF.

For the molecule B30, the “EC50 (% of hG-CSF) non-conjugated” value was 50 % of hG-CSF.

Regarding B31, the “EC50 (% of hG-CSF) non-conjugated” value is 100 % of hG-CSF.

Take B32: the “EC50 (% of hG-CSF) non-conjugated” value is 10 % of hG-CSF.

For the molecule B33, the “EC50 (% of hG-CSF) conjugated” value is 25 % of hG-CSF.

For B34, the “EC50 (% of hG-CSF) non-conjugated” value was 1 % of hG-CSF.

Consider B35, for which the “EC50 (% of hG-CSF) non-conjugated” value is 20 % of hG-CSF.

With B36, the “EC50 (% of hG-CSF) conjugated” value is 0 % of hG-CSF.

B37: the “EC50 (% of hG-CSF) conjugated” value is 0.2 % of hG-CSF.

As to B38, the “EC50 (% of hG-CSF) conjugated” value was 0.5 % of hG-CSF.
